# Molecular target: T1, VPA1365-His (Vibrio parahaemolyticus RIMD2210633) (UniProt Q87GF1)
# T1 sequence: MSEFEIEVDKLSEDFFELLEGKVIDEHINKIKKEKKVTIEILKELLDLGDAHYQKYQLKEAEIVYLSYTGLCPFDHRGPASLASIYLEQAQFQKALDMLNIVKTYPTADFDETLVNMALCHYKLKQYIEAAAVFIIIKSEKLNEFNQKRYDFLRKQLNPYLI
# Test: EMSA
# Settings: EMSA: 30 nM 5'-FAM probe, 20 µL with 4 µL 5x buffer (10 mM NaCl, 0.1 mM DTT, 0.1 mM EDTA, 10 mM Tris, pH 7.4; unclear if 5x or final), 25°C, 0.5 h, 6% PAGE
row,Sequence,binding
1,CGCTCTATAATGCTGACCCTTTTATCAATACTGTACTTATTTCCACAACAAAAAAGCGTACAGTTATTTACTTTTTTACCTTTAACTTGCTGTGAAAATAATATCGTCGACCTGCAGGCA (double strand) [mshA promoter],binds
2,GCGCATAGCTGTTATAAGAATCCTCAATTCATTTCAATTAATGAGTATTCAGTCAATTAATAGAGCGATTTACTTCATAAAACCATTTTATTTTTATGGACTTAGCTCAAGAAATGACAGCATTATTAACTAATTTTAATAATTTGAGGAATGCATCAATAACTATTTCATATAAACACGATTTACTGTTGACTAAGTTTTATAAATATCGATGATCAGCAAGTTAAACTGAACGAAGTTTTATTCATTTGAAAGCGCAAGAACATGACTATCGTCGACCTGCAGGCA (double strand) [scrG promoter (PscrG)],binds
3,TGCCTGCAGGTCGACGATCACAAGCAACAAAATTCATATTACTTCAACTAACTCAGTAAGTTGTAAGTAATTCATCATTAAAAAGGGCCACTAGGCCCTTTCTTTTTATCCATTAAAAAATAGCATTACTCGCAAAACTCTGCATACGATATGCAACTTTCTACCAAAGAGTTTTACCTCACTCGAGACCCCATCTCTTCCCCATTTTCAACCTTTATGAAGTCTCCATAATCCTTCGCTAATGCAAGGGCATTATTTATTTCATTAAGAAGGAAAG (double strand) [pilA promoter],binds

# — publication PMC12016518
